Experimental findings from publication PMC4981310 (PLoS Pathogens, 2016) are described below.

This series deals with Nc1ncnc2c1ncn2[C@@H]1O[C@H](COP(=O)(O)OP(=O)(O)O[C@H]2O[C@H](CO)[C@@H](O)[C@H](O)[C@H]2O)[C@@H](O)[C@H]1O. Put plainly: purified protein. Particulars: Mg2+ (stimulates kcat) compulsory-order ternary-complex mechanism; ADP-glucose binds before glucose 1-phosphate.

On to GlgA (Mycobacterium tuberculosis H37Rv), for which the Km (usually the substrate concentration at which the rate is half of its maximum) came out at 46 ± 4 µM; the maximum rate (Vmax) (in general, the top rate of the reaction or transport when substrate is in excess) is 21.4 µmol/min/mg; the catalytic constant (kcat) (usually the maximal rate divided by the concentration of active sites) is 15.4 ± 0.3 s⁻¹.
